Results reported in paper PMC5891007, “The crystal structure of XdpB, the bacterial old yellow enzyme, in an FMN-free form” (PLoS ONE, 2018).

Key:
[1] = target: XdpA, short chain dehydrogenase of the xdo operon (Agrobacterium bohemicum R89-1); assay: SEC; gel filtration chromatography, with SDS PAGE for the subunit
[2] = target: OPR3 (Solanum lycopersicum) (UniProt Q9FEW9); details: cited from earlier work
[3] = system: NC(=O)C1=CN([C@@H]2O[C@H](COP(=O)(O)OP(=O)(O)OC[C@H]3O[C@@H](n4cnc5c(N)ncnc54)[C@H](O)[C@@H]3O)[C@@H](O)[C@H]2O)C=CC1; assay: purified protein; details: NADH co-substrate, pH 8, 25 °C, in vitro flavinated, recalculated to FMN saturation, except NADH varied (0.015 to 0.3 mM), co-substrate GTN
[4] = target: T1, XdpB (XdpBwt) (Agrobacterium tumefaciens, UniProt A0A0A0VDJ9); assay: spectrophotometric NADH oxidation at […] nm, Lineweaver-Burk; details: read-out: Km^GTN; NADH co-substrate; pH 8; 25 °C; in vitro flavinated, recalculated to FMN saturation
[5] = target: XdpR, TetR family transcriptional regulator of the xdo operon (Agrobacterium bohemicum R89-1); assay: SEC + native gel or EMSA; gel filtration; native (blue native, 7% PAGE) and SDS electrophoresis
[6] = target: T1, XdpB (XdpBwt); assay: nanoDSF melting temperature; format: binding; set-up: full length with N-terminal His tag (XdpBwt), made in E. coli, Ni-NTA and gel filtration; in vitro flavinated with FMN for kinetics; C-terminal residue Asn365; details: apo form Tm 38.9 °C, 1 °C/min

T1 sequence (A0A0A0VDJ9 entry or part of it): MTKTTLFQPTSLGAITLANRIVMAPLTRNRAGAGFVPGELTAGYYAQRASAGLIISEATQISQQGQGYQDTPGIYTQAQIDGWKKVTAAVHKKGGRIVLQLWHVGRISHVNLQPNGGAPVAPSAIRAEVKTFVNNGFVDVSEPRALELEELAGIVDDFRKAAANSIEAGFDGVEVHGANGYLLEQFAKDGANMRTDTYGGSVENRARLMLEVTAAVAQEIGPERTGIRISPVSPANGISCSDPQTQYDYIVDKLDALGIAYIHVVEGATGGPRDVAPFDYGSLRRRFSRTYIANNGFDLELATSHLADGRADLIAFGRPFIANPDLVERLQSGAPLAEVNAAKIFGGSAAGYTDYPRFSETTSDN
Chain of OPR3 (Q9FEW9 whole entry): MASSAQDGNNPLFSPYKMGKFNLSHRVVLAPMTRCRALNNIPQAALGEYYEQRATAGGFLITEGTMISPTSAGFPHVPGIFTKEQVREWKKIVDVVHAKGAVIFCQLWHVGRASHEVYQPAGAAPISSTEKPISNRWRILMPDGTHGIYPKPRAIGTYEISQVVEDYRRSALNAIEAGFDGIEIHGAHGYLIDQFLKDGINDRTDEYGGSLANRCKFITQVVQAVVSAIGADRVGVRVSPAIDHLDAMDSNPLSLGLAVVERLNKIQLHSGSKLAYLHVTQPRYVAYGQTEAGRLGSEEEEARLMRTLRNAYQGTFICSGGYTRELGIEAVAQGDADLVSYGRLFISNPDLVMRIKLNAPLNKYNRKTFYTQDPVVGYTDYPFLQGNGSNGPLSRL

## XdpA, short chain dehydrogenase of the xdo operon (enzyme)
[1]
  stoichiometry N: 2

## OPR3 (from UniProt Q9FEW9)
[2]
  Kd: 30 µM

## XdpB (XdpBwt) (Agrobacterium tumefaciens)
[3]
  Km: 6 ± 1 µM

## O=[N+]([O-])OCC(CO[N+](=O)[O-])O[N+](=O)[O-] [GTN, glycerol trinitrate]
[4]
  Km: 460 ± 132 µM

## XdpR, TetR family transcriptional regulator of the xdo operon (natural protein)
[5]
  stoichiometry N: 2

## Cc1cc2nc3c(=O)[nH]c(=O)nc-3n(C[C@H](O)[C@H](O)[C@H](O)COP(=O)(O)O)c2cc1C [FMN, flavin mononucleotide]
[6]
  melting temperature of in vitro flavinated form: 39.8 °C
